T1: Human recombinant soluble TWEAK (human, UniProt O43508 99-249, limits assumed)
T1 sequence (looked up): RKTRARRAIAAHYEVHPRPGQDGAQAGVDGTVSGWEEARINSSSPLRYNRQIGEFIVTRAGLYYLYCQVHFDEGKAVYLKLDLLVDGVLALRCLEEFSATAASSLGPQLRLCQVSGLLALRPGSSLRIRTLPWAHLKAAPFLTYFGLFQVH

T2: human Flag-tagged soluble TWEAK (amino acids 106-249) (human, UniProt O43508 106-249)
T2 construct: the tag is put first here only by convention; also called Human TWEAK; not shown: Flag tag
T2 sequence (looked up): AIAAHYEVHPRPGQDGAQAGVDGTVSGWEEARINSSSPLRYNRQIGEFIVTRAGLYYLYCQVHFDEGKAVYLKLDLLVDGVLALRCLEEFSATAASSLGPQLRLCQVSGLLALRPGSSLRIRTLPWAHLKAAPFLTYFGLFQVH

T3: Biotinylated human soluble TWEAK (human, UniProt O43508 99-249, limits assumed, biotinylated (sites not given))
T3 construct: also called Human TWEAK
T3 sequence (looked up): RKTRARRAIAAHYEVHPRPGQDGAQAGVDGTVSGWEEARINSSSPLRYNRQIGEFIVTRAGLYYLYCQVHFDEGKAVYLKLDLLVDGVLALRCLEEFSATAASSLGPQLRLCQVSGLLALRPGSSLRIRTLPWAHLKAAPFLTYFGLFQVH


Assays:
[1] = target: T1, Human recombinant soluble TWEAK; test: cell-based or functional assay
[2] = target: T2, human Flag-tagged soluble TWEAK (amino …); test: receptor interaction ELISA: antibody pre-incubated with human Flag-tagged soluble TWEAK, binding to coated human Fn14:Fc
Method: Blocking of human TWEAK/human Fn14 interaction was shown by receptor interaction ELISA. 96-well Maxisorp® plates (Nunc) were coated with 100 μl 1 μg/ml human Fn14:Fc (extracellular domain of human Fn14 (amino acids 1-75) fused to Fc portion of human IgG1) in PBS per well for 1.5 h at room temperature and blocked with a solution of 5% FBS in PBS for 30 minutes at room temperature under shaking. […] Wells were filled with 100 μl of anti-FLAG-HRP detection antibody, diluted 1:5000 in blocking buffer, and incubated for 1 h at room temperature. After four more wash steps, the signal was developed by addition of 100 μl 3,3,5,5-Tetramethylbenzidine (TMB) solution for approximately ten minutes. The reaction was stopped by adding 100 μl of 1 N HCl, and absorbance measured at 450 nm (reference wavelength 620 nm).

[3] = target: T3, Biotinylated human soluble TWEAK; test: Biacore SPR, biotinylated human soluble TWEAK on streptavidin sensor, antibody 100 nM as analyte, 25° C.
Method: A Biacore 2000 instrument was used with a Biacore streptavidin coated sensor mounted into the system. The system buffer HBS-ET (10 mM HEPES pH 7.4, 150 mM NaCl, 1 mM EDTA, 0.05% Tween® 20) was used at a flow rate of 100 μl/min. The sample buffer was the system buffer. Biotinylated human soluble TWEAK and biotinylated murine soluble TWEAK was immobilized on different flow cells on the SA sensor at 150 RU each. The flow cell FC1 was used as a blank reference cell. Each antibody was injected into the system as an analyte at 100 nM at 100 μl/min for 2 min association time. The dissociation of the immunecomplexes were monitored for 5 min. The sensor surface was washed with HBS-ET for 10 seconds and regenerated using 2×2 minutes injections with 10 mM glycine pH 2.25. This procedure was done at 25° C. The kinetically rate limiting step of the complex dissociation phase in the interval [240 s-300 s] was taken to calculate the dissociation rate kd [1/s] (Biacore Evaluation Software 4.0). According to the equation t1/2 diss=ln(2)/(60×kd), the half-life of each immunocomplexe in minutes was calculated.

Row | Binder | IL-8 Secretion IC50 [1] | IC50 [2] | t/2 diss. [min] 25° C. [3] | t/2 diss [min] 25° C. [3]
1 | Antibody 15 (antibody, V domains shown) VH: QVQLQESGPGLVKPSETLSLTCAVSGYSIRSGYWWSWIRQPPGKGLEWIGQIYNKGNTDNNPALKSRVTISVDTSKNQFSLKLSSVTAADTAVYYCARVFWDDAYFDVWGQGTMVTVSS VL: EIVLTQSPATLSLSPGERATLSCKASQSVSIGPIHLMHWYQQKPGQAPRLLIYGASNPESGIPARFSGSGSGTDFTLTISSLEPEDFAVYYCQQGKESPRTFGQGTKLEIK | 0.141 µg/mL | 0.014 µg/mL | 18 min | 
2 | Antibody 21 (antibody, V domains shown) VH: QVQLQESGPGLVKPSETLSLTCAVSGYSIRSGYWWSWIRQPPGKGLEWIGQIYNKGNTDNNPALKSRVTISVDTSKNQFSLKLSSVTAADTAVYYCARVFWDDAYFDVWGQGTMVTVSS VL: EIVLTQSPGTLSLSPGERATLSCKASQSVSIGPIHLMHWYQQKPGQAPRLLIYGASNPESGIPDRFSGSGSGTDFTLTISRLEPEDFAVYYCQQGKESPRTFGQGTKLEIK | 0.224 µg/mL | 0.012 µg/mL | 17 min | 
3 | Antibody 17 (antibody, V domains shown) VH: QVQLQESGPGLVKPSETLSLTCTVSGYSIRSGYWWSWIRQPPGKGLEWIGQIYNKGNTDNNPALKSRVTISVDTSKNQFSLKLSSVTAADTAVYYCARVFWDDAYFDVWGQGTMVTVSS VL: EIVLTQSPATLSLSPGERATLSCKASQSVSIGPIHLMHWYQQKPGQAPRLLIYGASNPESGIPARFSGSGSGTDFTLTISSLEPEDFAVYYCQQGKESPRTFGQGTKLEIK | 0.146 µg/mL | 0.014 µg/mL | 18 min | 
4 | Antibody 24 (antibody, V domains shown) VH: QVQLQESGPGLVKPSETLSLTCTVSGYSIRSGYWWSWIRQPPGKGLEWIGQIYNKGNTDNSPSLKSRVTISVDTSKNQFSLKLSSVTAADTAVYYCARVFWDDAYFDVWGQGTMVTVSS VL: EIVLTQSPGTLSLSPGERATLSCKASQSVSIGPIHLMHWYQQKPGQAPRLLIYGASNPESGIPDRFSGSGSGTDFTLTISRLEPEDFAVYYCQQGKESPRTFGQGTKLEIK | 0.165 µg/mL | 0.02 µg/mL | 15 min | 
5 | Antibody 25 (antibody, V domains shown) VH: QVQLQESGPGLVKPSETLSLTCAVSGYSIRSGYWWSWIRQQPGKGLEWIGQIYNKGNTDNNPALKSQVTISVDTSKNQFSLKLSSVTAADTAVYYCARVFWDDAYFDVWGQGTMVTVSS VL: EIVLTQSPGTLSLSPGERATLSCKASQSVSIGPIHLMHWYQQKPGQAPRLLIYGASNPESGIPDRFSGSGSGTDFTLTISRLEPEDFAVYYCQQGKESPRTFGQGTKLEIK | 0.475 µg/mL | 0.042 µg/mL | 17 min | 
6 | Antibody 23 (antibody, V domains shown) VH: QVQLQESGPGLVKPSETLSLTCTVSGYSIRSGYWWSWIRQPPGKGLEWIGQIYNKGNTDNNPALKSRVTISVDTSKNQFSLKLSSVTAADTAVYYCARVFWDDAYFDVWGQGTMVTVSS VL: EIVLTQSPGTLSLSPGERATLSCKASQSVSIGPIHLMHWYQQKPGQAPRLLIYGASNPESGIPDRFSGSGSGTDFTLTISRLEPEDFAVYYCQQGKESPRTFGQGTKLEIK | 0.242 µg/mL | 0.013 µg/mL | 17 min | 
7 | Antibody 20 (antibody, V domains shown) VH: QVQLQESGPGLVKPSETLSLTCAVSGYSIRSGYWWSWIRQQPGKGLEWIGQIYNKGNTDNSPSLKSQVTISVDTSKNQFSLKLSSVTAADTAVYYCARVFWDDAYFDVWGQGTMVTVSS VL: EIVLTQSPATLSLSPGERATLSCKASQSVSIGPIHLMHWYQQKPGQAPRLLIYGASNPESGIPARFSGSGSGTDFTLTISSLEPEDFAVYYCQQGKESPRTFGQGTKLEIK | 0.401 µg/mL | 0.035 µg/mL | 15 min | 
8 | Antibody 18 (antibody, V domains shown) VH: QVQLQESGPGLVKPSETLSLTCTVSGYSIRSGYWWSWIRQPPGKGLEWIGQIYNKGNTDNSPSLKSRVTISVDTSKNQFSLKLSSVTAADTAVYYCARVFWDDAYFDVWGQGTMVTVSS VL: EIVLTQSPATLSLSPGERATLSCKASQSVSIGPIHLMHWYQQKPGQAPRLLIYGASNPESGIPARFSGSGSGTDFTLTISSLEPEDFAVYYCQQGKESPRTFGQGTKLEIK | 0.189 µg/mL | 0.016 µg/mL | 16 min | 
9 | Antibody 22 (antibody, V domains shown) VH: QVQLQESGPGLVKPSETLSLTCAVSGYSIRSGYWWSWIRQPPGKGLEWIGQIYNKGNTDNSPSLKSRVTISVDTSKNQFSLKLSSVTAADTAVYYCARVFWDDAYFDVWGQGTMVTVSS VL: EIVLTQSPGTLSLSPGERATLSCKASQSVSIGPIHLMHWYQQKPGQAPRLLIYGASNPESGIPDRFSGSGSGTDFTLTISRLEPEDFAVYYCQQGKESPRTFGQGTKLEIK | 0.249 µg/mL | 0.017 µg/mL | 14 min | 
10 | Antibody 16 (antibody, V domains shown) VH: QVQLQESGPGLVKPSETLSLTCAVSGYSIRSGYWWSWIRQPPGKGLEWIGQIYNKGNTDNSPSLKSRVTISVDTSKNQFSLKLSSVTAADTAVYYCARVFWDDAYFDVWGQGTMVTVSS VL: EIVLTQSPATLSLSPGERATLSCKASQSVSIGPIHLMHWYQQKPGQAPRLLIYGASNPESGIPARFSGSGSGTDFTLTISSLEPEDFAVYYCQQGKESPRTFGQGTKLEIK | 0.163 µg/mL | 0.022 µg/mL | 15 min | 
11 | Antibody 26 (antibody, V domains shown) VH: QVQLQESGPGLVKPSETLSLTCAVSGYSIRSGYWWSWIRQQPGKGLEWIGQIYNKGNTDNSPSLKSQVTISVDTSKNQFSLKLSSVTAADTAVYYCARVFWDDAYFDVWGQGTMVTVSS VL: EIVLTQSPGTLSLSPGERATLSCKASQSVSIGPIHLMHWYQQKPGQAPRLLIYGASNPESGIPDRFSGSGSGTDFTLTISRLEPEDFAVYYCQQGKESPRTFGQGTKLEIK | 0.222 µg/mL | 0.094 µg/mL | 16 min | 
12 | Antibody 19 (antibody, V domains shown) VH: QVQLQESGPGLVKPSETLSLTCAVSGYSIRSGYWWSWIRQQPGKGLEWIGQIYNKGNTDNNPALKSQVTISVDTSKNQFSLKLSSVTAADTAVYYCARVFWDDAYFDVWGQGTMVTVSS VL: EIVLTQSPATLSLSPGERATLSCKASQSVSIGPIHLMHWYQQKPGQAPRLLIYGASNPESGIPARFSGSGSGTDFTLTISSLEPEDFAVYYCQQGKESPRTFGQGTKLEIK | 0.253 µg/mL | 0.015 µg/mL | 17 min | 
13 | TW212chi (antibody, human IgG1) light: DIVLTQSPAYLTMSPGQTTTISCKASQSVSIGPIHLMHWYQQKPGQPPRLLIYGASNPESGVPARFSGSGSGTDFTLTIHPVEADDAATYFCQQGKESPRTFGPGTKLEITRTVAAPSVFIFPPSDEQLKSGTASVVCLLNNFYPREAKVQWKVDNALQSGNSQESVTEQDSKDSTYSLSSTLTLSKADYEKHKVYACEVTHQGLSSPVTKSFNRGEC heavy: not shown |  | 0.0134 µg/mL |  | 13 min
14 | TW202 (antibody, V domains shown, Armenian hamster monoclonal antibody; also called Antibody 202) VH: QLQLQESGLGLVKPSQSLTLTCSVTGFSITTPDYSWHWIRQLPGQTLEWMGFLYYEGDTYYNPSLKSRISIARDASKNQFFLQLKAVTTEDTATYFCARRKYSGYGNWFAYWGQGTLVTVSL VL: QPVLTQSPSASASLRASVKLTCTLSSQHSTYYIEWYQQRPDKAPKYVMYLDSDGSHIKGDGIPDRFSGSSSGAHRYLSISNLQPEDEAIYHCGVYDSTAGAVFGSGTQLTVLG | 0.146 µg/mL | 0.0092 µg/mL |  | 53 min
15 | TW205 (antibody, V domains shown, Armenian hamster monoclonal antibody; also called Antibody 205) VH: QIHLQESGLGLVKPSQSLTLTCSVTGFSITTPDYSWHWIRQFPGQTLEWMGFLYYEGDTYYNPSLKSRISIARDASKNQFFLQLKSVTTEDTATYFCVRRKYSGYGNWFAYWGQGTQVTVSS VL: QPVLTQAPSASASLRASVKLTCTLSSQHSTYYIEWYQQHPDKAPRYVMYVDSDGSHIKGDGVPDRFSGSSSGARRYLSISNLQPEDEAIYHCGVYDSTAGAVFGSGTQLTVLG | 0.151 µg/mL | 0.0088 µg/mL |  | 30 min
